This note sets out measurements from PMC2646846.

Common to all, as to assay: FRET or BRET
Background: Bioluminescence resonance energy transfer reports proximity on the nanometre scale.

The target of test [1] is calpain-2 Cys105Ala-eGFP-H6 (rat) with the truncated small subunit (rat) (UniProt Q07009).
The target in test [2] is calpain-2 Cys105Ala-CCPGCC-H6 (rat) labelled with LumioGreen, with the truncated small subunit (rat) (UniProt Q07009).
Test [3] has as its target labeled calpastatin fragments (competition by non-fluorigenic calpains).

Turning to “cL-AtB-D1-Ser151Cys-Alexafluor546 (from UniProt P20810 114-202) (domain or fragment)”, in test [1], the FRET efficiency amounted to 25.3%; the absolute increase in EmAcc/EmDon on addition of calcium (2.5 mM) was 0.22; the increase in EmAcc/EmDon on addition of calcium came out at 66.7%; the increase in EmAcc/EmDon on addition of calcium (2.5 mM), single assay is 64.4%. For the same substance, in test [1], the maximal calcium-dependent increase in EmAcc/EmDon (average) was found to be 0.169.
As for “cL-ABC-D1 Cys241Ser Ser148Cys labelled with TMR (from UniProt P20810 114-270) (domain or fragment)”, the increase in EmAcc/EmDon on addition of calcium in test [2] turned out to be 330%.
Consider “cL-ABC-D1 Cys241Ser Ser223Cys labelled with AlexaFluor546 (from UniProt P20810 114-270) (domain or fragment)”, for which, in test [1], the FRET efficiency was found to be 13.2% and the increase in EmAcc/EmDon on addition of calcium was found to be 34.1%.
On to “cL-ABC-D1 Cys241Ser Ser151Cys labelled with TMR (from UniProt P20810 114-270) (domain or fragment)”, for which, in test [2], the increase in EmAcc/EmDon on addition of calcium turned out to be 330%.
Take “cL-AtB-D1 Ser142Cys labelled with AlexaFluor546 (from UniProt P20810 114-202) (domain or fragment)”: the increase in EmAcc/EmDon on addition of calcium in test [1] amounted to 66.7%.
For the substance “porcine erythrocyte calpain 1 (from UniProt P35750 1-714; P04574 1-266) (complex)”, in test [3], the inhibition of FRET at ~0.35 μM competitor came to 50%.
Consider “cL-ABC-D1 Cys241Ser Ser151Cys labelled with AlexaFluor546 (from UniProt P20810 114-270) (domain or fragment)”, for which, in test [2], the increase in EmAcc/EmDon on addition of calcium was found to be 330%. In addition, in test [1], the FRET efficiency is 32.7%, the increase in EmAcc/EmDon on addition of calcium amounted to 99.9% and the maximal calcium-dependent increase in EmAcc/EmDon (average) turned out to be 0.45.
“cL-ABC-D1 Cys241Ser Ser142Cys labelled with TMR (from UniProt P20810 114-270) (domain or fragment)”: the increase in EmAcc/EmDon on addition of calcium in test [2] came to 330%.
Regarding “cL-AtB-D1 Ser148Cys labelled with AlexaFluor546 (from UniProt P20810 114-202) (domain or fragment)”, in test [1], the increase in EmAcc/EmDon on addition of calcium is 66.7% and the maximal calcium-dependent increase in EmAcc/EmDon (average) turned out to be 0.169.
On to “cL-ABC-D1 Cys241Ser Ser148Cys labelled with AlexaFluor546 (from UniProt P20810 114-270) (domain or fragment)”, for which the increase in EmAcc/EmDon on addition of calcium was determined as 330% in test [2] and 99.9% in test [1]. The maximal calcium-dependent increase in EmAcc/EmDon (average) in test [1] stood at 0.45.
Turning to “cL-ABC-D1 Cys241Ser Ser142Cys labelled with AlexaFluor546 (from UniProt P20810 114-270) (domain or fragment)”, the increase in EmAcc/EmDon on addition of calcium in test [2] stood at 330%; in test [1], 99.9%.
As to “calpain-2 Cys105Ala (rat), non-fluorigenic, with the truncated small subunit (from UniProt Q07009 20-700) (complex)”, the inhibition of FRET at ~0.35 μM competitor in test [3] came to 50%.
Consider “cL-ABC-D1-Cys241Ser-Ala246Cys Alexafluor546 (from UniProt P20810 114-270) (domain or fragment)”, for which, in test [1], the FRET efficiency was 33.5%; the absolute increase in EmAcc/EmDon on addition of calcium (2.5 mM) was determined as 0.456; the increase in EmAcc/EmDon on addition of calcium is 99.9%; the increase in EmAcc/EmDon on addition of calcium (2.5 mM), single assay turned out to be 70%. Further, the maximal calcium-dependent increase in EmAcc/EmDon (average) in test [1] was 0.45.
